Laboratory results published in the supplement of paper PMC9112550, “Optimization of the antimicrobial peptide Bac7 by deep mutational scanning” (BMC Biology, 2022).

System: Escherichia coli TOP10
Assay: shrunken log2 fold change of peptide-encoding DNA abundance (4.5 h post-induction vs induction); higher = less antimicrobial activity (less host growth inhibition)
Conditions: time post-induction: 4.5 h; library: site-saturation at positions 5, 18, 19, 20
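Further: peptides expressed intracellularly from a pBAD plasmid library in pooled LB shake-flask culture, induced with 0.3% L-arabinose, DNA abundance read by NGS, three biological replicates, DESeq2 with apeglm shrinkage.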

| Sequence | shrunken log2 fold change |
| --- | --- |
| RRIRHRPPRLPRPRPRPFASPRP | -0.182 |
| RRIRLRPPRLPRPRPRPHFNPRP | -0.386 |
| RRIRWRPPRLPRPRPRPQNHPRP | -0.585 |
| RRIRWRPPRLPRPRPRPWPRPRP | 0.223 |
| RRIRCRPPRLPRPRPRPRESPRP | 0.155 |
| RRIRTRPPRLPRPRPRPTWFPRP | -0.0683 |
| RRIRTRPPRLPRPRPRPVFGPRP | 0.227 |
| RRIRYRPPRLPRPRPRPMYIPRP | -0.0194 |
| RRIRSRPPRLPRPRPRPWFYPRP | -0.172 |
| RRIRWRPPRLPRPRPRPPRNPRP | 0.794 |
| RRIRFRPPRLPRPRPRPSTGPRP | -0.787 |
| RRIRLRPPRLPRPRPRPVPVPRP | -0.0404 |
| RRIRVRPPRLPRPRPRPVLAPRP | 0.239 |
| RRIRVRPPRLPRPRPRPWNWPRP | -0.00795 |
| RRIRTRPPRLPRPRPRPMYNPRP | -0.325 |
| RRIRPRPPRLPRPRPRPMSTPRP | -0.229 |
| RRIRDRPPRLPRPRPRPNEVPRP | 0.0348 |
| RRIRMRPPRLPRPRPRPFLMPRP | -0.0208 |
| RRIRVRPPRLPRPRPRPVIHPRP | -0.968 |
| RRIRSRPPRLPRPRPRPCVHPRP | -0.471 |
| RRIRFRPPRLPRPRPRPEIVPRP | -0.0888 |
| RRIRIRPPRLPRPRPRPITCPRP | -0.378 |
| RRIRARPPRLPRPRPRPCCQPRP | 0.102 |
| RRIRSRPPRLPRPRPRPEYWPRP | 0.191 |
| RRIRSRPPRLPRPRPRPKDKPRP | -0.117 |

| Sequence | shrunken log2 fold change |
| --- | --- |
| RRIRVRPPRLPRPRPRPGLEPRP | 0.0118 |
| RRIRFRPPRLPRPRPRPVVGPRP | 0.362 |
| RRIRHRPPRLPRPRPRPHFTPRP | -0.67 |
| RRIRQRPPRLPRPRPRPHVCPRP | -0.0223 |
| RRIRHRPPRLPRPRPRPDIGPRP | 0.0697 |
| RRIRTRPPRLPRPRPRPLKDPRP | 0.0122 |
| RRIRIRPPRLPRPRPRPGMCPRP | -0.238 |
| RRIRSRPPRLPRPRPRPGDMPRP | 0.0129 |
| RRIRKRPPRLPRPRPRPPEDPRP | 3.39 |
| RRIRPRPPRLPRPRPRPHGVPRP | -0.104 |
| RRIRPRPPRLPRPRPRPAPEPRP | 0.346 |
| RRIRVRPPRLPRPRPRPWTNPRP | -0.584 |
| RRIRNRPPRLPRPRPRPQTRPRP | 0.0246 |
| RRIRVRPPRLPRPRPRPINIPRP | -0.347 |
| RRIRTRPPRLPRPRPRPDKEPRP | -0.0196 |
| RRIRRRPPRLPRPRPRPRLAPRP | 0.62 |
| RRIRWRPPRLPRPRPRPSCDPRP | 0.574 |
| RRIRWRPPRLPRPRPRPNMNPRP | -0.345 |
| RRIRWRPPRLPRPRPRPNFGPRP | 0.174 |
| RRIRWRPPRLPRPRPRPPTQPRP | 0.312 |
| RRIRPRPPRLPRPRPRPREAPRP | 0.44 |
| RRIRRRPPRLPRPRPRPLHHPRP | 0.31 |
| RRIRARPPRLPRPRPRPMSIPRP | -0.118 |
| RRIRNRPPRLPRPRPRPFQFPRP | -0.0984 |
| RRIRFRPPRLPRPRPRPFSYPRP | -0.777 |

| Sequence | shrunken log2 fold change |
| --- | --- |
| RRIRYRPPRLPRPRPRPHDAPRP | -0.27 |
| RRIRRRPPRLPRPRPRPYCNPRP | -0.834 |
| RRIRKRPPRLPRPRPRPNHGPRP | -0.0607 |
| RRIRDRPPRLPRPRPRPINSPRP | -0.292 |
| RRIRQRPPRLPRPRPRPCWAPRP | -0.139 |
| RRIRDRPPRLPRPRPRPHRYPRP | -0.21 |
| RRIRRRPPRLPRPRPRPCCTPRP | -0.0151 |
| RRIRNRPPRLPRPRPRPTDHPRP | -0.383 |
| RRIRVRPPRLPRPRPRPPWDPRP | 0.445 |
| RRIRYRPPRLPRPRPRPNCVPRP | -0.0116 |
| RRIRRRPPRLPRPRPRPKVYPRP | -0.0919 |
| RRIRSRPPRLPRPRPRPRLAPRP | 0.45 |
| RRIRTRPPRLPRPRPRPKADPRP | -0.0127 |
| RRIRYRPPRLPRPRPRPDWWPRP | 0.0124 |
| RRIRIRPPRLPRPRPRPGVVPRP | -0.47 |
| RRIRLRPPRLPRPRPRPFSWPRP | -0.213 |
| RRIRDRPPRLPRPRPRPPTIPRP | 0.0394 |
| RRIRPRPPRLPRPRPRPMNCPRP | -0.138 |
| RRIRMRPPRLPRPRPRPHNKPRP | -0.305 |
| RRIRPRPPRLPRPRPRPDQIPRP | -0.265 |
| RRIRRRPPRLPRPRPRPCQKPRP | 0.0185 |
| RRIRQRPPRLPRPRPRPVKTPRP | 0.139 |
| RRIRVRPPRLPRPRPRPKPFPRP | 0.00969 |
| RRIRPRPPRLPRPRPRPKSDPRP | 0.0265 |
| RRIRFRPPRLPRPRPRPCLIPRP | -0.448 |
